Experimental data: patent US7332318B2, “Calcium-independent phospholipases A2, genes thereof and promoter of the same” (Japan Science and Technology Agency, priority 2001, dated 2008)

B1: cPLA2α: cytosolic phospholipase A2 (cPLA2α) of 85 kDa, the conventional full-length enzyme (protein, UniProt P47712 1-749, looked up)
chain: MSFIDPYQHIIVEHQYSHKFTVVVLRATKVTKGAFGDMLDTPDPYVELFISTTPDSRKRTRHFNNDINPVWNETFEFILDPNQENVLEITLMDANYVMDETLGTATFTVSSMKVGEKKEVPFIFNQVTEMVLEMSLEVCSCPDLRFSMALCDQEKTFRQQRKEHIRESMKKLLGPKNSEGLHSARDVPVVAILGSGGGFRAMVGFSGVMKALYESGILDCATYVAGLSGSTWYMSTLYSHPDFPEKGPEEINEELMKNVSHNPLLLLTPQKVKRYVESLWKKKSSGQPVTFTDIFGMLIGETLIHNRMNTTLSSLKEKVNTAQCPLPLFTCLHVKPDVSELMFADWVEFSPYEIGMAKYGTFMAPDLFGSKFFMGTVVKKYEENPLHFLMGVWGSAFSILFNRVLGVSGSQSRGSTMEEELENITTKHIVSNDSSDSDDESHEPKGTENEDAGSDYQSDNQASWIHRMIMALVSDSALFNTREGRAGKVHNFMLGLNLNTSYPLSPLSDFATQDSFDDDELDAAVADPDEFERIYEPLDVKSKKIHVVDSGLTFNLPYPLILRPQRGVDLIISFDFSARPSDSSPPFKELLLAEKWAKMNKLPFPKIDPYVFDREGLKECYVFKPKNPDMEKDCPTIIHFVLANINFRKYRAPGVPRETEEEKEIADFDIFDDPESPFSTFNFQYPNQAFKRLHDLMHFNTLNNIDVIKEAMVESIEYRRQNPSRCSVSLSNVEARRFFNKEFLSKPKA
modifications: full-length
notes: cytosolic phospholipase A2 (cPLA2α) of 85 kDa, the conventional full-length enzyme

How the values were obtained:
nerve stem cells = assay: Expression of KIDS cPLA2 in nerve stem cells after stimulation; type: cell-based; conditions: kainic acid 10 μM, probe P19-P27, FIG. 14
Procedure: Then expression of KIDS cPLA 2 of the present invention using nerve stem cells by means of stimulation by kainic acid (10 μM), by kainic acid and CNQX (10 μM KA and 20 μM CNQX) and by glutamic acid (50 μM) was investigated.
The result is shown in FIG. 14 which is a picture as a substitute for a drawing. In FIG. 14, the probe used is P90-P27 of 252 bp (the said sequence is a sequence of a moiety which is common in the full-length cPLA2) in the upper column, P19-P27 of 290 bp (the said sequence contains a sequence specific to KIDS cPLA2 of the present invention) in the second column and G3 PDH and nestin in the lower two columns as controls.
The lanes in FIG. 14 are control and stimulations by kainic acid (KA (10 μM)), by kainic acid and CNQX (KA (10 μM)+CNQX (20 μM)) and by glutamic acid (Glu (50 μM)) from the left side.

[1] = system: KIDS cPLA2 mRNA in hippocampal dentate gyrus; assay: In situ hybridization of brain slices after kainic acid stimulation; type: in vivo, Wister rat; conditions: rat brain, riboprobe C, with or without kainic acid stimulation
Procedure: Brain of Wister rat of 3 weeks age stimulated by kainic acid was fixed by 4% paraformaldehyde and then a frozen slice was prepared. Each of the radio-labeled riboprobes B, C and D was subjected to a hybridization reaction with the frozen slice and the labeled image of the slice from each probe was confirmed to be same. Then, frozen slice of the brain was prepared again using riboprobe C with or without a kainic acid stimulation and an expression pattern of KIDS cPLA2 mRNA was investigated.

[2] = system: KIDS cPLA2 protein in hippocampal dentate gyrus; assay: Immunohistochemical dyeing of brain slices after kainic acid stimulation; type: in vivo, cPLA2a knockout mouse, C57/Black 6J mouse, Wister rat; conditions: anti-KIDS cPLA2 stump antibody
Procedure: Brains of cPLA2a knockout mouse and C57/Black 6J mouse of 6-10 weeks age and Wister rat of 3 weeks age stimulated by kainic acid were fixed with 4% paraformaldehyde and then frozen slices were prepared. Immunoreaction of an anti-KIDS cPLA2-specific stump antibody with the brain slice was carried out overnight at 4° C. and expression of KIDS cPLA2 protein was confirmed by a secondary antibody labeled with gold colloid.

[3] = Enzymatic (phospholipase A2) activity of KIDS cPLA2 and cPLA2α on radiolabelled PC substrates; type: biochemical; conditions: difference from the control
Text: Then enzymatic activity of cPLA2α and KIDS cPLA2 of the present invention were investigated. There were used 1-Pam-2-[^14C] arachidonoyl-PC (black dots (●) in FIG. 7), 1-Pam-2-[^14C]Iinoleoyl-PC (black triangles (▴) in FIG. 7), 1-Pam-2-[^14C]oleoyl-PC (black squares (▪) in FIG. 7) and 1-Pam-2-[^14C]palmitoyl-PC (asterisks (*) in FIG. 7) as the substrates for testing the enzymatic activity of each of them. In FIG. 7, the left side is that for KIDS cPLA2 of the present invention while the right side is that for cPLA2α.
Incidentally, the phospholipase A2 activity is given in terms of the difference from the control.

[4] = Calcium dependency of enzymatic activity (EDTA-Ca); type: biochemical; conditions: substrate 1-Pam-2-[^14C]arachidonoyl-PC
Text: Then, calcium dependency of cPLA2α and KIDS cPLA2 of the present invention on enzymatic activity was investigated using 1-Pam-2-[^14C]arachidonoyl-PC as a substrate. EDTA-Ca was used as a calcium source.
The solid lines in FIG. 8 are the case of KIDS cPLA of the present invention while the broken lines therein are the case of cPLA2α. In each of them, the black dots (●) are the data in the absence of EDTA-Ca while the open circles (◯) are those in the presence of EDTA-Ca.
It is noted that, in the case of KIDS cPLA2 of the present invention, an activity of around 40% is maintained even […] while, in the case of cPLA2α, the activity is reduced to an extent of around 10-15% […].

Molecule | Expression of KIDS cPLA2 (nerve stem cells) | Expression pattern of KIDS cPLA2 mRNA [1] | Expression of KIDS cPLA2 protein [2] | Phospholipase A2 Activity ([3]; substrate 1-Pam-2-[^14C]arachidonoyl-PC) [pmol/min] | Phospholipase A2 Activity ([3]; substrate 1-Pam-2-[^14C]linoleoyl-PC) [pmol/min] | Phospholipase A2 Activity ([3]; substrate 1-Pam-2-[^14C]oleoyl-PC) [pmol/min] | Phospholipase A2 Activity ([3]; substrate 1-Pam-2-[^14C]palmitoyl-PC) [pmol/min] | Activity maintained in the presence of calcium (relative ratio) ([4]; EDTA-Ca, FIG. 9) | Change of enzymatic activity by the presence of calcium ([4]; with and without EDTA-Ca, FIG. 8)
C=C(C)[C@H]1CN[C@H](C(=O)O)[C@H]1CC(=O)O [kainic acid] | specific expression of KIDS cPLA2 of the present invention was confirmed | drastically induced in the hippocampal dentate gyrus | drastically induced in the hippocampal dentate gyrus | – | – | – | – | – | –
B1 | – | – | – | 24.4 ± 1.4 | 11.9 ± 1.8 | 9.1 ± 1.1 | 9.8 ± 1.7 | 10-15% | sudden reduction in the activity by the presence of calcium
